Assay results published in paper PMC2113761.

Target: FITC-labeled porcine brain tubulin (porcine) (UniProt P02550)
Assay: co-sedimentation

fluorescence intensity (B/A) of the precipitate, labeled tubulin alone (6:0): 27.5
Substance: FITC-labeled porcine brain tubulin (from UniProt P02550 1-451) (complex)
